From patent US20170227547A1 (Hoffmann-La Roche, published 2017)
Residue numbers refer to the chain shown, from its start. Numbers in names are those of the source. Each block holds one molecule with its values, some of them ahead of it.

Tests used:
[1] = target: human neonatal Fc receptor (FcRn), non-covalent complex with beta-2-microglobulin (human) (UniProt P55899); assay: FcRn affinity column (Example 2), Fc-region after IdeS cleavage
[2] = target: human neonatal Fc receptor (FcRn), non-covalent complex with beta-2-microglobulin (human) (UniProt P55899); assay: FcRn affinity column, run of the Bevacizumab comparison
[3] = target: T1, human IL-12 (human, UniProt P29459 23-219; P29460 23-328); assay: SPR, IL-12
T1 construct: also called interleukin 12
T1 sequence (looked up) 1: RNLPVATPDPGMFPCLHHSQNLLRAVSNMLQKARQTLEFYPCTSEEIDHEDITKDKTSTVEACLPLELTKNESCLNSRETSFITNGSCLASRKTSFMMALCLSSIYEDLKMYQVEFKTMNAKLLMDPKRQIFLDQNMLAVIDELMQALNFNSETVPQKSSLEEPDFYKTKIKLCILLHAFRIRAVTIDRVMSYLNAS
T1 sequence (looked up) 2: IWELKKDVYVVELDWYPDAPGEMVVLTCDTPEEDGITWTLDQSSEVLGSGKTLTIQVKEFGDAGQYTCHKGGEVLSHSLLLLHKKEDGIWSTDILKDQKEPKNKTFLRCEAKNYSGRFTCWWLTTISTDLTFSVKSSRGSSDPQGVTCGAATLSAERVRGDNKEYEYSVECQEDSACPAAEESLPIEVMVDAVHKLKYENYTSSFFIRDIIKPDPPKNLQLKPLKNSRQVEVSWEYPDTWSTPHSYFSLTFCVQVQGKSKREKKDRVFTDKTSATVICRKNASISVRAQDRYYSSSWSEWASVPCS

[4] = target: human neonatal Fc receptor (FcRn), non-covalent complex with beta-2-microglobulin (human) (UniProt P55899); assay: FcRn affinity chromatography, pH gradient 5.5-8.8, 140 mM NaCl (Example 2)
[5] = target: human neonatal Fc receptor (FcRn), non-covalent complex with beta-2-microglobulin (human) (UniProt P55899); assay: SPR, huFcRn immobilised, pH 6.0, steady state affinity normalised to Ustekinumab
[6] = target: T1, human IL-12; assay: IL-12 ELISA, concentration calculated from the fit of the Briakinumab calibration curve
[7] = target: human neonatal Fc receptor (FcRn), non-covalent complex with beta-2-microglobulin (human) (UniProt P55899); assay: FcRn affinity column (Example 2)
[8] = target: human neonatal Fc receptor (FcRn), non-covalent complex with beta-2-microglobulin (human) (UniProt P55899); assay: FcRn affinity chromatography, pH gradient (Example 2), pH measured offline
[9] = target: human neonatal Fc receptor (FcRn), non-covalent complex with beta-2-microglobulin (human) (UniProt P55899); assay: SPR, FcRn, buffer pH 6.0
[10] = target: human neonatal Fc receptor (FcRn), non-covalent complex with beta-2-microglobulin (human) (UniProt P55899); assay: SPR, FcRn, buffer pH 6.4
[11] = target: human neonatal Fc receptor (FcRn), non-covalent complex with beta-2-microglobulin (human) (UniProt P55899); assay: SPR, FcRn, buffer pH 6.6
[12] = target: human neonatal Fc receptor (FcRn), non-covalent complex with beta-2-microglobulin (human) (UniProt P55899); assay: SPR, FcRn, buffer pH 6.8
[13] = target: human neonatal Fc receptor (FcRn), non-covalent complex with beta-2-microglobulin (human) (UniProt P55899); assay: SPR, FcRn, buffer pH 7.0
[14] = target: human neonatal Fc receptor (FcRn), non-covalent complex with beta-2-microglobulin (human) (UniProt P55899); assay: FcRn affinity chromatography, pH gradient (Example 2), pH measured offline; FcRn affinity column, Example 2; elution pH at 93.7 min
[15] = target: human neonatal Fc receptor (FcRn), non-covalent complex with beta-2-microglobulin (human) (UniProt P55899); assay: SPR, huFcRn immobilised, pH 6.0, steady state affinity normalised to Ustekinumab; SPR steady state, pH 6.0, KD relative to Ustekinumab = 1
[16] = target: human neonatal Fc receptor (FcRn), non-covalent complex with beta-2-microglobulin (human) (UniProt P55899); assay: FcRn affinity column, Example 3 method, elution buffer 20 mM Tris/HCl, 400 mM NaCl, pH 8.8; FcRn affinity column, Example 3, high salt 400 mM NaCl
[17] = target: human neonatal Fc receptor (FcRn), non-covalent complex with beta-2-microglobulin (human) (UniProt P55899); assay: FcRn affinity chromatography, pH gradient 5.5-8.8, 140 mM NaCl (Example 2); FcRn affinity column, Example 2, 140 mM NaCl, pH gradient; complete antibody
[18] = target: human neonatal Fc receptor (FcRn), non-covalent complex with beta-2-microglobulin (human) (UniProt P55899); assay: SPR, huFcRn immobilised, pH 6.0, steady state affinity normalised to Ustekinumab; SPR steady state, pH 6.0; the reference, set to 1
[19] = target: human neonatal Fc receptor (FcRn), non-covalent complex with beta-2-microglobulin (human) (UniProt P55899); assay: FcRn affinity chromatography, pH gradient (Example 2), pH measured offline; FcRn affinity column, Example 2; elution pH at 84.3 min
[20] = target: T1, human IL-12; assay: IL-12 ELISA, absorbance against antibody concentration

Molecule: Bevacizumab-wild-type (antibody)
FcRn column retention time [2]: 84.7 min

B1: mAb 2 (antibody, V domains shown)
VH: QVQLVESGGGVVQPGRSLRLSCAASGFTFSSYGMHWVRQAPGKGLEWVAFIRYDGSNKYYADSVKGRFTISRDNSKNTLYLQMNSLRAEDTAVYYCKTHGSHDNWGQGTMVTVSS
VL: QSVLTQPPSVSGAPGQRVTISCSGSRSNIGSNTVKWYQQLPGTAPKLLIYYNDQRPSGVPDRFSGSKSGTSASLAITGLQAEDEADYYCQSYDRYTHPALLFGTGTKVTVLG
notes: Fv domain of Briakinumab on the Ustekinumab constant domains (IgG1)
Kd [3]: 0.25 nM | koff [3]: 0.0003 s⁻¹ | kon [3]: 1.2e+06 M⁻¹ s⁻¹ | FcRn column retention time [4]: 93 min | rel. KD (Ustekinumab = 1) [5]: 0.3 | window of IL-12 binding relative to Briakinumab (Briakinumab=100%) [6]: ≤ 20%

B2: mAb 8 (antibody, IgG1, V domains shown)
VH: B1 VH with R16A, R19A, K58A, K65A, R87A
VL: QSVLTQPPSVSGAPGQRVTISCSGSRSNIGSNTVKWYQQLPGTAPKLLIYYNDQRPSGVPDRFSGSKSGTSASLAITGLQAEDEADYYCQSYDRYTHPALLFGTGTKVTVL
notes: Briakinumab variant (IgG1) with five positively charged heavy chain residues mutated; also called Briakinumab with HC mutations R16A, R19A, K57A, K64A, R83A
Kd [3]: 0.07 nM | koff [3]: 9.1e-05 s⁻¹ | kon [3]: 1.2e+06 M⁻¹ s⁻¹ | FcRn column retention time [7]: 90.1 min | FcRn column retention time [4]: 90.1 min | FcRn column elution pH [8]: 7.7 pH | rel. KD (Ustekinumab = 1) [5]: 0.4

B3: Briakinumab (antibody, V domains shown)
VH: B1 VH
VL: B1 VL
notes: Fully human IgG1; also called ABT 874; J 695
Kd [3]: 0.07 nM | koff [3]: 6e-05 s⁻¹ | kon [3]: 800000 M⁻¹ s⁻¹ | Kd [9]: 90 nM | Kd [10]: 100 nM | Kd [11]: 360 nM | Kd [12]: 600 nM | Kd [13]: 4200 nM | FcRn column retention time [7]: 93.7 min | FcRn column retention time [2]: 91.6 min | rel. KD (Ustekinumab = 1) [5]: 0.2 | window of IL-12 binding relative to Briakinumab (Briakinumab=100%) [6]: ≤ 20% | FcRn column elution pH [14]: 7.9 pH | rel. KD (Ustekinumab = 1) [15]: 0.2 | FcRn column retention time [16]: 83.1 min | FcRn column retention time [17]: 93.7 min

More lines, now with the values ahead:

FcRn column retention time [1]: 85.7 min
Molecule: IdeS-cleaved Fc-region of Briakinumab

FcRn column retention time [1]: 85.2 min
Molecule: IdeS-cleaved Fc-region of Ustekinumab

Kd [3]: 0.01 nM | koff [3]: 0.00013 s⁻¹ | kon [3]: 8.8e+06 M⁻¹ s⁻¹ | FcRn column retention time [7]: 86.2 min | FcRn column retention time [4]: 86.2 min | FcRn column elution pH [8]: 7.5 pH | rel. KD (Ustekinumab = 1) [5]: 0.4
B4: mAb 9 (antibody, IgG1, V domains shown)
VH: B1 VH
VL: B2 VL with R26A, R55A, R94A
notes: Briakinumab variant (IgG1) with three positively charged residues of the light chain CDRs mutated to alanine; also called Briakinumab with LC mutations R27A, R55A, R94A

Kd [3]: 0.2 nM | koff [3]: 0.00018 s⁻¹ | kon [3]: 900000 M⁻¹ s⁻¹ | Kd [9]: 390 nM | Kd [10]: 1000 nM | Kd [11]: 3100 nM | FcRn column retention time [7]: 84.3 min | FcRn column retention time [2]: 83.6 min | rel. KD (Ustekinumab = 1) [5]: 1 | window of IL-12 binding relative to Briakinumab (Briakinumab=100%) [6]: ≤ 20% | rel. KD (Ustekinumab = 1) [18]: 1 | FcRn column elution pH [19]: 7.4 pH | FcRn column retention time [16]: 80.4 min | FcRn column retention time [17]: 84.3 min
B5: Ustekinumab (antibody, V domains shown)
VH: EVQLVQSGAEVKKPGESLKISCKGSGYSFTTYWLGWVRQMPGKGLDWIGIMSPVDSDIRYSPSFQGQVTMSVDKSITTAYLQWNSLKASDTAMYYCARRRPGQGYFDFWGQGTLVTVSS
VL: DIQMTQSPSSLSASVGDRVTITCRASQGISSWLAWYQQKPEKAPKSLIYAASSLQSGVPSRFSGSGSGTDFTLTISSLQPEDFATYYCQQYNIYPYTFGQGTKLEIK
notes: Fully human IgG1; also called CNTO 1275; Stelara

Kd [3]: 0.24 nM | koff [3]: 0.00041 s⁻¹ | kon [3]: 1.7e+06 M⁻¹ s⁻¹ | FcRn column retention time [4]: 84.3 min | rel. KD (Ustekinumab = 1) [5]: 1
B6: mAb 1 (antibody, V domains shown)
VH: B5 VH
VL: B5 VL
notes: Fv domain of Ustekinumab on the constant parts of Briakinumab (IgG1)

FcRn column retention time [4]: 92.4 min | binding result [20]: no binding (tested: 12 ng/mL) | rel. KD (Ustekinumab = 1) [5]: 0.2
B7: mAb 3 (antibody, V domains shown)
VH: B5 VH
VL: B1 VL
notes: Heavy chains of Ustekinumab and light chains of Briakinumab (whole chains)
